Results from article doi:10.1101/310227.
Ends that are not written are not given here.

Tests used:
[1] = target: Halo-tagged isopeptide-blocker (Spy0128 β-strand11 mimic) (Streptococcus pyogenes); test: pull-down
[2] = target: Spy0128 polyprotein I91-Spy0128-I91-Spy0128-I91 (not stated | Streptococcus pyogenes); test: AFM force spectroscopy

Molecule	percent of modified Spy0128 after enrichment on Magne-HaloTag-beads [1]	percent of AFM traces with at least one modified Spy0128 [2]	percent of Spy0128 blocked [2]
Spy0128 polyprotein I91-Spy0128-I91-Spy0128-I91	60%		
MEFTDKDMTITFTNKKDAEEDIRSEDLYFQSDNTTPE (also: Halo-tagged, site not given here) [Halo-tagged isopeptide-blocker (Spy0128 β-strand11 mimic)]		32.5%	21.1%
